How the values were obtained:
[1] = molecular target: the molecule itself; assay: SEC; Superdex-200 gel filtration, 20 mM Tris pH 8.0, 200 mM NaCl, 2 mM DTT, 4% glycerol; molecular weights estimated against standards
[2] = molecular target: the molecule itself; assay: crystal structure; hanging-drop vapor diffusion at 25 °C under continuous full-spectrum white light (40 μmol m^2 s^-1); 1.5 M sodium nitrate, 0.1 M BIS-TRIS propane pH 7.0; tetramer of four monomers A-D

B1: Arabidopsis CRY2 photolyase homologous region (PHR) domain (domain or fragment, Arabidopsis thaliana, UniProt Q96524 1-498, looked up)
chain: MKMDKKTIVWFRRDLRIEDNPALAAAAHEGSVFPVFIWCPEEEGQFYPGRASRWWMKQSLAHLSQSLKALGSDLTLIKTHNTISAILDCIRVTGATKVVFNHLYDPVSLVRDHTVKEKLVERGISVQSYNGDLLYEPWEIYCEKGKPFTSFNSYWKKCLDMSIESVMLPPPWRLMPITAAAEAIWACSIEELGLENEAEKPSNALLTRAWSPGWSNADKLLNEFIEKQLIDYAKNSKKVVGNSTSLLSPYLHFGEISVRHVFQCARMKQIIWARDKNSEGEESADLFLRGIGLREYSRYICFNFPFTHEQSLLSHLRFFPWDADVDKFKAWRQGRTGYPLVDAGMRELWATGWMHNRIRVIVSSFAVKFLLLPWKWGMKYFWDTLLDADLECDILGWQYISGSIPDGHELDRLDNPALQGAKYDPEGEYIRQWLPELARLPTEWIHHPWDAPLTVLKASGVELGTNYAKPIVDIDTARELLAKAISRTREAQIMIGAA
notes: Cryptochrome-2 (CRY2), Arabidopsis thaliana, PHR domain, residues 1-498, wild type; Expressed as a GST fusion from the pFastbac-GST vector; GST removed by TEV protease on the column; The crystal holds four copies (monomers A-D); in solution mostly monomer; also called AtCRY2-PHR; CRY2-PHR
[1]
  stoichiometry N: 2
[2]
  stoichiometry N: 4

From article PMC7782693, “Structural insights into photoactivation of plant Cryptochrome-2” (Communications Biology, 2021)
